Measurements: the supplement of paper PMC9112550, “Optimization of the antimicrobial peptide Bac7 by deep mutational scanning” (BMC Biology, 2022)

system: Escherichia coli TOP10; test: shrunken log2 fold change of peptide-encoding DNA abundance (4.5 h post-induction vs induction); higher = less antimicrobial activity (less host growth inhibition); conditions: time post-induction: 4.5 h; library: site-saturation at positions 5, 18, 19, 20
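Also: peptides expressed intracellularly from a pBAD plasmid library in pooled LB shake-flask culture, induced with 0.3% L-arabinose, DNA abundance read by NGS, three biological replicates, DESeq2 with apeglm shrinkage.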

| Sequence | shrunken log2 fold change |
| --- | --- |
| RRIRQRPPRLPRPRPRPERKPRP | 0.0453 |
| RRIRWRPPRLPRPRPRPFHDPRP | -0.285 |
| RRIRQRPPRLPRPRPRPSMTPRP | -0.285 |
| RRIRMRPPRLPRPRPRPQSAPRP | 0.055 |
| RRIRRRPPRLPRPRPRPLGQPRP | 0.00384 |
| RRIRERPPRLPRPRPRPIMAPRP | -1.15 |
| RRIRMRPPRLPRPRPRPMRLPRP | 0.416 |
| RRIRGRPPRLPRPRPRPYWGPRP | 0.198 |
| RRIRIRPPRLPRPRPRPALYPRP | -0.312 |
| RRIRMRPPRLPRPRPRPDGSPRP | 0.107 |
| RRIRHRPPRLPRPRPRPPFHPRP | -0.119 |
| RRIRARPPRLPRPRPRPWCPPRP | -0.169 |
| RRIRSRPPRLPRPRPRPKTCPRP | -0.0741 |
| RRIRGRPPRLPRPRPRPYLLPRP | -0.407 |
| RRIRGRPPRLPRPRPRPNMTPRP | 1.63 |
| RRIRPRPPRLPRPRPRPWLTPRP | -0.123 |
| RRIRKRPPRLPRPRPRPQMVPRP | -0.0031 |
| RRIRPRPPRLPRPRPRPLYAPRP | 0.0267 |
| RRIRDRPPRLPRPRPRPRNVPRP | 0.0903 |
| RRIRLRPPRLPRPRPRPHAKPRP | -0.0928 |
| RRIRTRPPRLPRPRPRPVPQPRP | 0.00694 |
| RRIRYRPPRLPRPRPRPDYGPRP | -0.205 |
| RRIRGRPPRLPRPRPRPRPCPRP | 0.676 |
| RRIRNRPPRLPRPRPRPFRFPRP | -0.199 |
| RRIRQRPPRLPRPRPRPWCHPRP | -0.169 |

| Sequence | shrunken log2 fold change |
| --- | --- |
| RRIRYRPPRLPRPRPRPFMDPRP | -0.2 |
| RRIRNRPPRLPRPRPRPWCEPRP | 0.034 |
| RRIRIRPPRLPRPRPRPCKIPRP | -0.293 |
| RRIRNRPPRLPRPRPRPTRNPRP | 0.0941 |
| RRIRMRPPRLPRPRPRPSYYPRP | -0.531 |
| RRIRDRPPRLPRPRPRPCPIPRP | -0.00104 |
| RRIRWRPPRLPRPRPRPEIKPRP | -0.0674 |
| RRIRSRPPRLPRPRPRPSHIPRP | -0.849 |
| RRIRARPPRLPRPRPRPFPVPRP | -0.0583 |
| RRIRKRPPRLPRPRPRPYCLPRP | -0.17 |
| RRIRRRPPRLPRPRPRPTDGPRP | 0.0329 |
| RRIRPRPPRLPRPRPRPCDCPRP | 0.0287 |
| RRIRMRPPRLPRPRPRPEKPPRP | 1.34 |
| RRIRERPPRLPRPRPRPPVFPRP | -0.152 |
| RRIRMRPPRLPRPRPRPHHPPRP | -0.234 |
| RRIRRRPPRLPRPRPRPAQHPRP | 0.369 |
| RRIRERPPRLPRPRPRPFHRPRP | -0.182 |
| RRIRLRPPRLPRPRPRPRYMPRP | -0.982 |
| RRIRLRPPRLPRPRPRPFRSPRP | -0.0185 |
| RRIRIRPPRLPRPRPRPMSSPRP | -0.215 |
| RRIRVRPPRLPRPRPRPMWIPRP | 0.00541 |
| RRIRCRPPRLPRPRPRPIEFPRP | 0.191 |
| RRIRWRPPRLPRPRPRPMIRPRP | -0.348 |
| RRIRGRPPRLPRPRPRPCNPPRP | -0.266 |
| RRIRTRPPRLPRPRPRPVAYPRP | -0.502 |

| Sequence | shrunken log2 fold change |
| --- | --- |
| RRIRLRPPRLPRPRPRPCRGPRP | 0.157 |
| RRIRERPPRLPRPRPRPPGQPRP | 0.104 |
| RRIRWRPPRLPRPRPRPNCCPRP | -0.16 |
| RRIRWRPPRLPRPRPRPMNFPRP | -0.0285 |
| RRIRERPPRLPRPRPRPALKPRP | 0.4 |
| RRIRYRPPRLPRPRPRPKIQPRP | -0.68 |
| RRIRHRPPRLPRPRPRPVYSPRP | -0.0167 |
| RRIRVRPPRLPRPRPRPKFIPRP | -0.286 |
| RRIRVRPPRLPRPRPRPSHKPRP | -0.24 |
| RRIRRRPPRLPRPRPRPSDIPRP | -1.08 |
| RRIRLRPPRLPRPRPRPSAFPRP | -0.181 |
| RRIRSRPPRLPRPRPRPKYEPRP | -0.147 |
| RRIRNRPPRLPRPRPRPNYWPRP | -0.694 |
| RRIRYRPPRLPRPRPRPTWVPRP | 0.18 |
| RRIRHRPPRLPRPRPRPFAEPRP | -0.0659 |
| RRIRFRPPRLPRPRPRPAQFPRP | 0.156 |
| RRIRTRPPRLPRPRPRPSCFPRP | -0.0671 |
| RRIRQRPPRLPRPRPRPLPDPRP | 0.0466 |
| RRIRGRPPRLPRPRPRPQPTPRP | 1.02 |
| RRIRARPPRLPRPRPRPWVPPRP | -0.146 |
| RRIRARPPRLPRPRPRPIDQPRP | 0.444 |
| RRIRIRPPRLPRPRPRPYCSPRP | -0.0144 |
| RRIRFRPPRLPRPRPRPLVMPRP | -0.335 |
| RRIRHRPPRLPRPRPRPCLCPRP | -0.268 |
| RRIRNRPPRLPRPRPRPNGPPRP | -0.015 |

| Sequence | shrunken log2 fold change |
| --- | --- |
| RRIRTRPPRLPRPRPRPKSWPRP | 0.245 |
| RRIRYRPPRLPRPRPRPHTAPRP | -0.57 |
| RRIRRRPPRLPRPRPRPTLEPRP | 0.607 |
| RRIRDRPPRLPRPRPRPDPGPRP | 0.506 |
| RRIRDRPPRLPRPRPRPGNQPRP | -0.0686 |
| RRIRTRPPRLPRPRPRPDARPRP | 0.0965 |
| RRIRQRPPRLPRPRPRPMFQPRP | -0.467 |
| RRIRVRPPRLPRPRPRPYCNPRP | -0.501 |
| RRIRCRPPRLPRPRPRPGSHPRP | -0.0784 |
| RRIRGRPPRLPRPRPRPHIDPRP | 0.301 |
| RRIRNRPPRLPRPRPRPPHKPRP | -0.136 |
| RRIRYRPPRLPRPRPRPMRFPRP | 0.0781 |
| RRIRHRPPRLPRPRPRPGPWPRP | 0.166 |
| RRIRTRPPRLPRPRPRPHTCPRP | -0.0347 |
| RRIRCRPPRLPRPRPRPEGWPRP | 0.855 |
| RRIRIRPPRLPRPRPRPIKSPRP | -0.462 |
| RRIRVRPPRLPRPRPRPVRKPRP | 0.274 |
| RRIRWRPPRLPRPRPRPNFDPRP | -0.0228 |
| RRIRMRPPRLPRPRPRPWIAPRP | -0.00608 |
| RRIRLRPPRLPRPRPRPAKYPRP | -0.694 |
| RRIRYRPPRLPRPRPRPYEGPRP | -0.00776 |
| RRIRERPPRLPRPRPRPKALPRP | -0.113 |
| RRIRLRPPRLPRPRPRPKMMPRP | -0.167 |
| RRIRMRPPRLPRPRPRPMIQPRP | 0.00725 |
| RRIRHRPPRLPRPRPRPWGNPRP | -0.0654 |

| Sequence | shrunken log2 fold change |
| --- | --- |
| RRIRNRPPRLPRPRPRPPIPPRP | -0.0646 |
| RRIRHRPPRLPRPRPRPMMMPRP | -0.0507 |
| RRIRIRPPRLPRPRPRPSQIPRP | -0.142 |
| RRIRYRPPRLPRPRPRPRKWPRP | 0.149 |
| RRIRFRPPRLPRPRPRPLEMPRP | -0.357 |
| RRIRYRPPRLPRPRPRPKWCPRP | -0.00875 |
| RRIRMRPPRLPRPRPRPNFWPRP | 0.294 |
| RRIRGRPPRLPRPRPRPVNAPRP | 0.719 |
| RRIRKRPPRLPRPRPRPHGNPRP | -0.0306 |
| RRIRERPPRLPRPRPRPPNPPRP | 0.216 |
| RRIRVRPPRLPRPRPRPQIQPRP | -0.034 |
| RRIRNRPPRLPRPRPRPKACPRP | -0.00921 |
| RRIRQRPPRLPRPRPRPQAHPRP | -0.23 |
| RRIRSRPPRLPRPRPRPHHQPRP | -0.61 |
| RRIRARPPRLPRPRPRPMDMPRP | -0.128 |
| RRIRPRPPRLPRPRPRPLHFPRP | -0.207 |
| RRIRRRPPRLPRPRPRPCEYPRP | 0.0177 |
| RRIRKRPPRLPRPRPRPKCRPRP | 0.175 |
| RRIRPRPPRLPRPRPRPIWMPRP | 0.0829 |
| RRIRMRPPRLPRPRPRPVSYPRP | -0.00671 |
| RRIRSRPPRLPRPRPRPASNPRP | -0.101 |
| RRIRERPPRLPRPRPRPCWTPRP | 0.0421 |
| RRIRHRPPRLPRPRPRPEPYPRP | 0.0514 |
| RRIRNRPPRLPRPRPRPHEFPRP | -0.13 |
| RRIRMRPPRLPRPRPRPDLNPRP | 0.178 |

| Sequence | shrunken log2 fold change |
| --- | --- |
| RRIRGRPPRLPRPRPRPCQKPRP | 0.0649 |
| RRIRMRPPRLPRPRPRPPMKPRP | -0.0709 |
| RRIRPRPPRLPRPRPRPIENPRP | -0.414 |
| RRIRPRPPRLPRPRPRPEHYPRP | -0.106 |
| RRIRARPPRLPRPRPRPTVSPRP | 0.136 |
| RRIRGRPPRLPRPRPRPQNTPRP | 0.0999 |
| RRIRPRPPRLPRPRPRPYDTPRP | 0.0749 |
| RRIRARPPRLPRPRPRPEPCPRP | 0.126 |
| RRIRPRPPRLPRPRPRPDVFPRP | -0.203 |
| RRIRCRPPRLPRPRPRPTFFPRP | 0.114 |
| RRIRLRPPRLPRPRPRPNDLPRP | -0.00842 |
| RRIRTRPPRLPRPRPRPWCSPRP | -0.799 |
| RRIRKRPPRLPRPRPRPPGFPRP | 0.55 |
| RRIRDRPPRLPRPRPRPKCPPRP | 0.149 |
| RRIRMRPPRLPRPRPRPKEHPRP | 0.617 |
| RRIRGRPPRLPRPRPRPTSGPRP | 0.917 |
| RRIRCRPPRLPRPRPRPFNRPRP | -0.466 |
| RRIRTRPPRLPRPRPRPRDLPRP | 0.064 |
| RRIRMRPPRLPRPRPRPLQVPRP | 0.21 |
| RRIRPRPPRLPRPRPRPETWPRP | 0.1 |
| RRIRLRPPRLPRPRPRPFCGPRP | -0.126 |
| RRIRRRPPRLPRPRPRPCRHPRP | -0.105 |
| RRIRDRPPRLPRPRPRPTKDPRP | 0.0518 |
| RRIRRRPPRLPRPRPRPSPAPRP | 0.868 |
| RRIRPRPPRLPRPRPRPAANPRP | 0.17 |
